Reference: patent US20210032342A1 (Merck Sharp & Dohme, published 2021)

T1: human LAG-3 expressed by the CD4+ T-cell clone BC4-49 (human, UniProt P18627 23-525)
T1 construct: whole, on cells
T1 sequence (looked up): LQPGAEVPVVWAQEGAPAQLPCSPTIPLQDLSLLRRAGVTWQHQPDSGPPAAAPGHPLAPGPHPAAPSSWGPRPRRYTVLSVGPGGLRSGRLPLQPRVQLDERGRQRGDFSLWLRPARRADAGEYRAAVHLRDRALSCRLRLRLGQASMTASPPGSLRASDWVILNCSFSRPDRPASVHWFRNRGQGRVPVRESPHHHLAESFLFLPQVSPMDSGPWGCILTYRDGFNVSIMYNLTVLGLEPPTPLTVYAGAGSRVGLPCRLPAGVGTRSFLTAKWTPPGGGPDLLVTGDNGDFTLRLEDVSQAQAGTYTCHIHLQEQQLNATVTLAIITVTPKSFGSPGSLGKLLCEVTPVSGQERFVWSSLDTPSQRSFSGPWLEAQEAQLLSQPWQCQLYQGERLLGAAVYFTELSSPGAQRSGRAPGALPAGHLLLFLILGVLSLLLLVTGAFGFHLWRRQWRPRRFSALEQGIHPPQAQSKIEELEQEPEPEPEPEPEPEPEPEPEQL


How the values were obtained:
[1] = target: human PD-1 expressed on cells (Jurkat.hPD-1.IL2luc clone DT999A1; CD4+ T cell clone BC4-49) (human, UniProt Q15116 25-288); assay: cell-based or functional assay
Sequence of human PD-1 expressed on cells (Jurkat.hPD-1.IL2luc clone DT999A1; CD4+ T cell clone BC4-49) (Q15116 25-288): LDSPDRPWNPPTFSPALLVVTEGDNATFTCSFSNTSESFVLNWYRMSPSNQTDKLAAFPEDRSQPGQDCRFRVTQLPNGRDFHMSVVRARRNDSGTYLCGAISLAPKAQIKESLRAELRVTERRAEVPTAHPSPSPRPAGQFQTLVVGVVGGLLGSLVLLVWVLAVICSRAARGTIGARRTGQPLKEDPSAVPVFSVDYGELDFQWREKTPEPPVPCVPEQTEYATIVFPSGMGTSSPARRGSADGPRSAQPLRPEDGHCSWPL

[2] = target: T1, human LAG-3 expressed by the CD4+ …; assay: T-cell clone + JY.hPD-L1 co-culture (conclusion stated from IFNγ read-out)
Experimental: The pellets were resuspended into single cell suspension in Yssel's medium. […] Fifty microliters of T cell suspension at a density of 4×10⁵ cells/mL was added into wells containing titrated antibodies. The antibody/T cell mixture was pre-incubated for 1 hour in an incubator at 37° C. with 5% CO₂. Human PD-L1 transgene expressing JY cells (JY.hPD-L1) were used in co-cultures to provide allo-specific antigens. […] The pellet was resuspended with Yssel's medium, and filtered with 40 μm cell strainer before plating. Fifty μL/well of JY.hPD-L1 suspension at a concentration of 2×10⁵ cells/mL was dispensed into pre-incubated antibody-T cells mixture, with T cell to JY.hPD-L1 cell ratio at 2:1. All conditions were run in duplicates. After approximately 3-day culture, 100 μL of supernatant per well was harvested for human IFNγ quantification. Human IFNγ ELISA was performed to assess IFNγ level on pooled supernatant from duplicates by using hIFNγ QUANTIKINE kit (R&D Systems, SIF50). Assays were run following the standard protocol provided by manufacturer. EC50 values were calculated using the [sequence] prism software.

[3] = target: T2, polyhistidine-tagged human PD-1 (hPD1-His, 98AFK) (human, UniProt Q15116 25-167, limits assumed); assay: SPR solution affinity; reference Humanized 08A IgG4 S61N (98AIO)
T2 construct: also called human PD1-His; Human PD-1-His; not shown: polyhistidine tag
T2 sequence (Q15116 25-167 limits assumed): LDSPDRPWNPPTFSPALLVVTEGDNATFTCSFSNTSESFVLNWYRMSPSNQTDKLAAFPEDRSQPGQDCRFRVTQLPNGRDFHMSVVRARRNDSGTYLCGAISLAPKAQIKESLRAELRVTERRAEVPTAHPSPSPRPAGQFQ
Experimental: The titration series were incubated for 16-24 hours to reach equilibrium at room temperature. The unbound sites were measured using a BIAcore chip immobilized with antigen in a competition mode where SPR signal detected corresponded to unbound antibody.
Free, unbound antibodies concentrations were measured as proportional to RU after 120 seconds (for 500 pM mAb series) or 400 seconds (for 100 pM mAb series) of injection at 10 μL/min.
Data analyses were performed using KINEXA Pro Version 1.02 (Sapydyne) where RUs were normalized and plotted against concentrations.

| Binder | AVG EC50, IL-2 luciferase reporter (Jurkat.hPD-1.IL2luc + THP-1.PD-L1 assay) [1] [nM] | binding result [2] | KD (REF)/KD [3] |
| --- | --- | --- | --- |
| Anti-PD-1/LAG3 bispecific antibody 90ASU (bispecific antibody, human IgG1, kappa, L234A L235A, also called Humanized x [PD-1_H]; [LAG3_H]; BsAb (hu08A S61N G56A arm / 22D2 arm) IgG1/Kappa) heavy 1: not shown light 1: DIVMTQTPLSLSVTPGQPASISCRASKSVSTSGFSYLHWYLQKPGQPPQLLIFLASNLESGVPDRFSGSGSGTDFTLKISRVEAEDVGVYYCQHSWELPLTFGQGTKLEIKRTVAAPSVFIFPPSDERLKSGTASVVCLLNNFYPREAKVQWKVDNALQSGNSQESVTEQDSKDSTYSLSSRLTLSKADYEKHKVYACEVTHQGLSSPVTKSFNRGEC heavy 2: QMQLVQSGPEVKKPGTSVKVSCKASGYTFTDYNVDWVRQARGQRLEWIGDINPNDGGTIYAQKFQERVTITVDKSTSTAYMELSSLRSEDTAVYYCARNYRWFGAMDHWGQGTTVTVSSASTKGPSVFPLAPSSKSTSGGTAALGCLVKDYFPEPVTVSWNSGALTSGVHTFPAVLQSSGLYKLSSVVTVPSSSLGTQTYICNVNHKPSNTKVDKKVEPKSCDKTHTCPPCPAPEAAGGPSVFLFPPKPKDTLMISRTPEVTCVVVSVSHEDPEVKFNWYVDGVEVHNAKTKPREEQYNSTYRVVSVLTVLHQDWLNGKEYKCKVSNKALPAPIEKTISKAKGQPREPQVYVLPPSRDELTKNQVSLLCLVKGFYPSDIAVEWESNGQPENNYLTWPPVLDSDGSFFLYSKLTVDKSRWQQGNVFSCSVMHEALHNHYTQKSLSLSPG light 2: DIVMTQTPLSLSVTPGQPASISCKASQSLDYEGDSDMNWYLQKPGQPPQLLIYGASNLESGVPDRFSGSGSGTDFTLKISRVEAEDVGVYYCQQSTEDPRTFGGGTKVEIKRTVAAPSVFIFPPSDEELKSGTATVVCLLNNFYPREAKVQWKVDNALQSGNSQESVTEQDSKDSTYSLSSYLELSKADYEKHKVYACEVTHQGLSSPVTKSFNRGEC | 2.54 | binds |  |
| Anti-PD-1/LAG3 bispecific antibody 33ARK (bispecific antibody, human IgG1, kappa, L234A L235A) heavy 1: EVQLVQSGAEVKKPGASVKVSCKASGYTFTSYYLYWVREAPGQGLEWIGGVNPSNGGTNFNEKFKSRVTLTVDTSISTAYMELSRLRSDDTAVYYCTRRDSNYDGGFDYWGQGTTVTVSSASTKGPSVFPLAPSSKSTSGGTAALGCEVTDYFPEPVTVSWNSGALTSGVHTFPAVLESSGLYSLSSVVTVPSSSLGTQTYICNVNHKPSNTKVDKKVEPKSCDKTHTCPPCPAPEAAGGPSVFLFPPKPKDTLMISRTPEVTCVVVSVSHEDPEVKFNWYVDGVEVHNAKTKPREEQYNSTYRVVSVLTVLHQDWLNGKEYKCKVSNKALPAPIEKTISKAKGQPREPQVYVLPPSRDELTKNQVSLLCLVKGFYPSDIAVEWESNGQPENNYLTWPPVLDSDGSFFLYSKLTVDKSRWQQGNVFSCSVMHEALHNHYTQKSLSLSPG light 1: DIVMTQTPLSLSVTPGQPASISCRASKSVSTSGFSYLHWYLRKPGQPPQLLIFLASNLESGVPDRFSGSGSGTDFTLKISRVEAEDVGVYYCQHSWELPLTFGQGTKLEIKRTVAAPSVFIFPPSDERLKSGTASVVCLLNNFYPREAKVQWKVDNALQSGNSKESVTEQDSKDSTYSLSSRLTLSKADYEKHKVYACEVTHQGLSSPVTKSFNRGEC heavy 2: not shown light 2: DIVMTQTPLSLSVTPGQPASISCKASQSLDYEGDSDMNWYLEKPGQPPQLLIYGASNLESGVPDRFSGSGSGTDFTLKISRVEAEDVGVYYCQQSTEDPRTFGGGTKVEIKRTVAAPSVFIFPPSDEELKSGTASVVCLLNNFYPREAKVQWKVDNALQSGNSEESVTEQDSKDSTYSLSSTLELSKADYEKHKVYACEVTHQGLSSPVTKSFNRGEC | 3.12 |  |  |
| Anti-PD-1/LAG-3 bispecific antibody (BsAb) 18ASS (bispecific antibody, human IgG1, kappa, L234A L235A) heavy 1: not shown light 1: DIVMTQTPLSLSVTPGQPASISCRASKSVSTSGFSYLHWYLQKPGQPPQLLIFLSKYRSSGVPDRFSGSGSGTDFTLKISRVEAEDVGVYYCSQAYHLPLTFGQGTKLEIKRTVAAPSVFIFPPSDERLKSGTASVVCLLNNFYPREAKVQWKVDNALQSGNSQESVTEQDSKDSTYSLSSRLTLSKADYEKHKVYACEVTHQGLSSPVTKSFNRGEC heavy 2: QMQLVQSGPEVKKPGTSVKVSCKASGYTFTDYNVDWVRQARGQRLEWIGDINPNDGGTIYAQKFQERVTITVDKSTSTAYMELSSLRSEDTAVYYCARNYRWFGAMDHWGQGTTVTVSSASTKGPSVFPLAPSSKSTSGGTAALGCLVKDYFPEPVTVSWNSGALTSGVHTFPAVLQSSGLYKLSSVVTVPSSSLGTQTYICNVNHKPSNTKVDKKVEPKSCDKTHTCPPCPAPEAAGGPSVFLFPPKPKDTLMISRTPEVTCVVVSVSHEDPEVKFNWYVDGVEVHNAKTKPREEQYNSTYRVVSVLTVLHQDWLNGKEYKCKVSNKALPAPIEKTISKAKGQPREPQVYVLPPSRDELTKNQVSLLCLVKGFYPSDIAVEWESNGQPENNYLTWPPVLDSDGSFFLYSKLTVDKSRWQQGNVFSCSVMHEALHNHYTQKSLSLSPG light 2: DIVMTQTPLSLSVTPGQPASISCKASQSLDYEGDSDMNWYLQKPGQPPQLLIYGASNLESGVPDRFSGSGSGTDFTLKISRVEAEDVGVYYCQQSTEDPRTFGGGTKVEIKRTVAAPSVFIFPPSDEELKSGTATVVCLLNNFYPREAKVQWKVDNALQSGNSQESVTEQDSKDSTYSLSSYLELSKADYEKHKVYACEVTHQGLSSPVTKSFNRGEC | 0.55 |  |  |

Second part, the binder after the results:

| AVG EC50, IL-2 luciferase reporter (Jurkat.hPD-1.IL2luc + THP-1.PD-L1 assay) [1] [nM] | binding result [2] | KD (REF)/KD [3] | Binder |
| --- | --- | --- | --- |
| 3.32 |  |  | Humanized x [PD-1_H] Fab (08A/HuPD1A-11 S61N WT) IgG4/Kappa (00APE) (Fab, V domains shown) VH: EVQLVQSGAEVKKPGASVKVSCKASGYTFTSYYLYWVRQAPGQGLEWIGGVNPSNGGTNFNEKFKSRVTLTVDTSISTAYMELSRLRSDDTAVYYCTRRDSNYDGGFDYWGQGTTVTVSS VL: DIVMTQTPLSLSVTPGQPASISCRASKSVSTSGFSYLHWYLQKPGQPPQLLIFLASNLESGVPDRFSGSGSGTDFTLKISRVEAEDVGVYYCQHSWELPLTFGQGTKLEIKR |
|  |  | 13 | Humanized x [PD-1_H] mAb (08A/HuPD1A-11 S61N CP-affinity matured Fab 100 (VH H3G9 (D100L N102H) G56A/VL L28D1) L234A L235A D265S) IgG1/Kappa (25AVE) (antibody, V domains shown, also called Humanized 08A IgG4 Fab 100 S61N G56A) VH: EVQLVQSGAEVKKPGASVKVSCKASGYTFTSYYLYWVRQAPGQGLEWIGGVNPSNAGTNFNEKFKSRVTLTVDTSISTAYMELSRLRSDDTAVYYCTRRLSHYDGGFDYWGQGTTVTVSS VL: DIVMTQTPLSLSVTPGQPASISCRASKSVSTSGFSYLHWYLQKPGQPPQLLIFLSKYRSSGVPDRFSGSGSGTDFTLKISRVEAEDVGVYYCSQAYHLPLTFGQGTKLEIKR |
